From patent CN117866092A (BEIJING KENUO XINCHENG TECH CO LTD, dated 2024) come the findings set out here.

The target of test [1] is T1, 细胞表面人CD73蛋白 (human CD73 on the cell surface) (human, UniProt P21589 27-549).
T1 construct: whole, on cells; Endogenous CD73 on human tumour cell lines; also called 细胞表面CD73; CD73 on BXPC-3, SKOV-3, A375, MDA-MB-231 and A431 cells
T1 sequence (looked up): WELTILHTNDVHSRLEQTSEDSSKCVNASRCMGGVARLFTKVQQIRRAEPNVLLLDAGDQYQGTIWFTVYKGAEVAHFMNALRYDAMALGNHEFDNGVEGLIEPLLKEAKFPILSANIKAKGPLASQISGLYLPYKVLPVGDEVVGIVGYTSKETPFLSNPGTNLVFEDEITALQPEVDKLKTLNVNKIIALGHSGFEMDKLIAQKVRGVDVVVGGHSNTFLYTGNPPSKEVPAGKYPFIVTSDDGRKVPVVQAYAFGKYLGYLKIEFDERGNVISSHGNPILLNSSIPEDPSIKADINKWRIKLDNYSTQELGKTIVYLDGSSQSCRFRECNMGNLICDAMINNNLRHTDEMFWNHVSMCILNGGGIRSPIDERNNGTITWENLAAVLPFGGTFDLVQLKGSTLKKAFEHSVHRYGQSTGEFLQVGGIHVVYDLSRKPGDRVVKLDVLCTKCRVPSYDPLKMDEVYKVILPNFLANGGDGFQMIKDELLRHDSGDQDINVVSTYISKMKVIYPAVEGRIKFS
The test can be described thus: flow cytometry on BXPC-3 cells, FITC anti-human IgG. For orientation: A flow cytometer gives signals particle by particle.

The target in test [2] is T2, 人CD73-his重组蛋白(序列号:NM_002526.3，27-547aa) (human, UniProt P21589 27-547).
T2 construct: range 27-547; Transiently expressed in eukaryotic cells; also called rhCD73-his; 重组人CD73-his; not shown: his tag
T2 sequence (looked up): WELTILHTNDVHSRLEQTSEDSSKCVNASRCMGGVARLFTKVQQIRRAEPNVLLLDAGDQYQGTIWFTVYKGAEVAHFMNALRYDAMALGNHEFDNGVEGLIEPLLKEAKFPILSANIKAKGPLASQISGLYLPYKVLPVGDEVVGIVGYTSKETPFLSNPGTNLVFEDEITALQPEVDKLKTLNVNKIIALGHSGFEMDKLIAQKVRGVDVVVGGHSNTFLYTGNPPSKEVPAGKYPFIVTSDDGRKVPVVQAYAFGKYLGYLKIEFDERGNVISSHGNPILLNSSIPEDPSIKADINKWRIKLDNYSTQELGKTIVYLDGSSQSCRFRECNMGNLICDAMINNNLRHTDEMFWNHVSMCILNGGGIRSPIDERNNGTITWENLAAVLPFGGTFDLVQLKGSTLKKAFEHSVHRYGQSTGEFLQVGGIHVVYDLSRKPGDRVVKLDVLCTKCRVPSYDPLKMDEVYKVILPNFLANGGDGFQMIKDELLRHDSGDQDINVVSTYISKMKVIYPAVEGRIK
The test can be described thus: BLI (Octet QKe), antibody captured on AHC sensor, 60 nM CD73-his as analyte, 1:1 fit. (In BLI a coated tip is dipped into the sample, and binding shifts an interference pattern.)

B1: MEDI9447 (antibody, V domains shown)
VH: EVQLLESGGGLVQPGGSLRLSCAASGFTFSSYAYSWVRQAPGKGLEWVSAISGSGGRTYYADSVKGRFTISRDNSKNTLYLQMNSLRAEDTAVYYCARLGYGRVDEWGRGTLVTVSS
VL: QSVLTQPPSASGTPGQRVTISCSGSLSNIGRNPVNWYQQLPGTAPKLLIYLDNLRLSGVPDRFSGSKSGTSASLAISGLQSEDEADYYCATWDDSHPGWTFGGGTKLTVLG
The molecule B1 showed an EC50 in test [1] of 0.242 nM. For the same molecule, in test [2], binding was put at a Kd of 0.635 nM, the koff is 0.000105 s⁻¹ and the kon was determined as 165000 M⁻¹ s⁻¹.

One may read the EC50 as the midpoint of the concentration-response curve. A higher EC50 goes with lower potency in that assay. As a reminder, the Kd is the constant that tells how readily two partners part at equilibrium. A higher Kd goes with a looser complex. A word on the koff: it is a measure of how fast the partners let go of each other. A higher koff goes with a short-lived complex. By kon is commonly meant the second-order rate constant of association. Low readings indicate slower complex formation, high ones faster complex formation.
